Measurements published in patent publication US20210071139A1.

How the values were obtained:
TOX [1] = target: TOX (UniProt Q66JW3); experiment: anti-TOX IP from EL4 nuclear extract, LC-MS/MS, MiST vs IgG control
TOX [2] = target: TOX (UniProt Q66JW3); experiment: TOX IP-MS, EL4 nuclear extract, MiST; row of the bait itself

Chain of TOX (Q66JW3 whole entry): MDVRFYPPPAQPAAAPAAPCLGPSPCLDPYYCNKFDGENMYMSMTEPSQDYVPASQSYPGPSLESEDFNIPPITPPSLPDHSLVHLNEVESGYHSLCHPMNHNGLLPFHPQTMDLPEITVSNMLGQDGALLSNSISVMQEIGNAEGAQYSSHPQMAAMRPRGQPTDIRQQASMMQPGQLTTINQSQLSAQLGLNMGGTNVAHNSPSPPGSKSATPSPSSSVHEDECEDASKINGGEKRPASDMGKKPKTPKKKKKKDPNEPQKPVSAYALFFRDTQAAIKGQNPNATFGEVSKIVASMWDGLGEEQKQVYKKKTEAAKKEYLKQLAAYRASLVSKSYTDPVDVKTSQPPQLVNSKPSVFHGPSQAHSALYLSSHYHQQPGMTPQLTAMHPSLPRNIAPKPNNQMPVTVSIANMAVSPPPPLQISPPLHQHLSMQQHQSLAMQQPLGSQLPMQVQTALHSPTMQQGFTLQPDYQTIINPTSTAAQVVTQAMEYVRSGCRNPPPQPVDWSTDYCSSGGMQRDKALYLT

Question: For Actr5 (from UniProt Q80US4 1-605), which Abundance (TOX [1]) is on record?
Answer: Its Abundance is 9e-06.

Question: What about the MiST Score (TOX [1]) of the same substance?
Answer: The MiST Score was 0.753.

Question: What about the Reproducibility (TOX [1]) of the same substance?
Answer: The Reproducibility was 0.979.

Question: And the Specificity (TOX [1])?
Answer: The Specificity was 0.658.

Question: With Ap2a1 (from UniProt P17426 1-977) as the substance, how does the Abundance (TOX [1]) read?
Answer: Its Abundance is 2.47e-06.

Question: What about the MiST Score (TOX [1]) of the same substance?
Answer: The MiST Score was 0.754.

Question: What about the Reproducibility (TOX [1]) of the same substance?
Answer: The Reproducibility was 0.846.

Question: What about the Specificity (TOX [1]) of the same substance?
Answer: The Specificity was 0.719.

Question: What does the source list for Bclaf1 (from UniProt Q8K019 1-919)?
Answer: Abundance (TOX [1]): 6.73e-05; MiST Score (TOX [1]): 0.756; Reproducibility (TOX [1]): 0.872; Specificity (TOX [1]): 0.71

Question: Which results are given for Ccdc86 (from UniProt Q9JJ89 1-426)?
Answer: Abundance (TOX [1]): 3.82e-05; MiST Score (TOX [1]): 0.751; Reproducibility (TOX [1]): 0.964; Specificity (TOX [1]): 0.662

Question: Which results are given for Cnot10 (from UniProt Q8BH15 2-744)?
Answer: Abundance (TOX [1]): 8.51e-06; MiST Score (TOX [1]): 0.751; Reproducibility (TOX [1]): 0.946; Specificity (TOX [1]): 0.669

Question: For Cwc15 (from UniProt Q9JHS9 2-229), which Abundance (TOX [1]) is on record?
Answer: Its Abundance is 9.35e-05.

Question: And the MiST Score (TOX [1])?
Answer: The MiST Score was 0.756.

Question: And the Reproducibility (TOX [1])?
Answer: Its Reproducibility is 0.814.

Question: And the Specificity (TOX [1])?
Answer: Its Specificity is 0.736.

Question: Which Abundance (TOX [1]) does the source give for “Dld (from UniProt O08749 36-509) (enzyme)” here?
Answer: The Abundance was 1.87e-05.

Question: And the MiST Score (TOX [1])?
Answer: Its MiST Score is 0.76.

Question: And the Reproducibility (TOX [1])?
Answer: Its Reproducibility is 0.898.

Question: And the Specificity (TOX [1])?
Answer: The Specificity was 0.704.

Question: With Ebna1bp2 (from UniProt Q9D903 1-306) as the substance, how does the Abundance (TOX [1]) read?
Answer: The Abundance was 9.4e-05.

Question: What about the MiST Score (TOX [1]) of the same substance?
Answer: Its MiST Score is 0.752.

Question: And the Reproducibility (TOX [1])?
Answer: The Reproducibility was 0.984.

Question: What about the Specificity (TOX [1]) of the same substance?
Answer: The Specificity was 0.654.

Question: Which results are given for Eif3a (from UniProt P23116 1-1344)?
Answer: Abundance (TOX [1]): 1.17e-05; MiST Score (TOX [1]): 0.764; Reproducibility (TOX [1]): 0.795; Specificity (TOX [1]): 0.757

Question: For Gatad2a (from UniProt Q8CHY6 1-629), which Abundance (TOX [1]) is on record?
Answer: The Abundance was 1.98e-05.

Question: What about the MiST Score (TOX [1]) of the same substance?
Answer: Its MiST Score is 0.76.

Question: And the Reproducibility (TOX [1])?
Answer: Its Reproducibility is 0.908.

Question: And the Specificity (TOX [1])?
Answer: Its Specificity is 0.7.

Question: How did the Abundance (TOX [1]) turn out when Gatad2b (from UniProt Q8VHR5 1-594) was run?
Answer: The Abundance was 1.65e-05.

Question: And the MiST Score (TOX [1])?
Answer: Its MiST Score is 0.752.

Question: What about the Reproducibility (TOX [1]) of the same substance?
Answer: The Reproducibility was 0.863.

Question: And the Specificity (TOX [1])?
Answer: Its Specificity is 0.708.

Question: Nol7 (from UniProt Q9D7Z3 1-254) was tested. Which Abundance (TOX [1]) did it give?
Answer: The Abundance was 0.000128.

Question: What about the MiST Score (TOX [1]) of the same substance?
Answer: The MiST Score was 0.757.

Question: And the Reproducibility (TOX [1])?
Answer: The Reproducibility was 0.972.

Question: What about the Specificity (TOX [1]) of the same substance?
Answer: Its Specificity is 0.666.

Question: Pabpn1 (from UniProt Q8CCS6 2-302) was tested. Which Abundance (TOX [1]) did it give?
Answer: The Abundance was 8.22e-05.

Question: And the MiST Score (TOX [1])?
Answer: The MiST Score was 0.759.

Question: What about the Reproducibility (TOX [1]) of the same substance?
Answer: The Reproducibility was 0.992.

Question: And the Specificity (TOX [1])?
Answer: The Specificity was 0.66.

Question: Which results are given for Paxbp1 (from UniProt P58501 1-919)?
Answer: Abundance (TOX [1]): 1.83e-06; MiST Score (TOX [1]): 0.75; Reproducibility (TOX [1]): 0.516; Specificity (TOX [1]): 0.862

Question: Which Abundance (TOX [1]) does the source give for Pnn (from UniProt O35691 2-725) here?
Answer: The Abundance was 7.35e-05.

Question: What about the MiST Score (TOX [1]) of the same substance?
Answer: The MiST Score was 0.762.

Question: What about the Reproducibility (TOX [1]) of the same substance?
Answer: The Reproducibility was 0.681.

Question: And the Specificity (TOX [1])?
Answer: The Specificity was 0.805.

Question: For Pop1, which Abundance (TOX [1]) is on record?
Answer: Its Abundance is 2.18e-06.

Question: And the MiST Score (TOX [1])?
Answer: The MiST Score was 0.754.

Question: What about the Reproducibility (TOX [1]) of the same substance?
Answer: The Reproducibility was 0.906.

Question: And the Specificity (TOX [1])?
Answer: The Specificity was 0.693.

Question: Raver1 (from UniProt Q9CW46 2-748) was tested. Which Abundance (TOX [1]) did it give?
Answer: Its Abundance is 4.89e-05.

Question: And the MiST Score (TOX [1])?
Answer: Its MiST Score is 0.762.

Question: And the Reproducibility (TOX [1])?
Answer: The Reproducibility was 0.839.

Question: What about the Specificity (TOX [1]) of the same substance?
Answer: Its Specificity is 0.734.

Question: Which Abundance (TOX [1]) does the source give for Rbm25 (from UniProt B2RY56 1-838) here?
Answer: The Abundance was 9.24e-06.

Question: And the MiST Score (TOX [1])?
Answer: Its MiST Score is 0.755.

Question: What about the Reproducibility (TOX [1]) of the same substance?
Answer: Its Reproducibility is 0.601.

Question: What about the Specificity (TOX [1]) of the same substance?
Answer: Its Specificity is 0.831.

Question: For Rrp1 (from UniProt P56183 1-494), which Abundance (TOX [1]) is on record?
Answer: Its Abundance is 9e-06.

Question: And the MiST Score (TOX [1])?
Answer: Its MiST Score is 0.753.

Question: And the Reproducibility (TOX [1])?
Answer: The Reproducibility was 0.976.

Question: What about the Specificity (TOX [1]) of the same substance?
Answer: Its Specificity is 0.659.

Question: Rsl1d1 (from UniProt Q8BVY0 1-452) was tested. Which Abundance (TOX [1]) did it give?
Answer: The Abundance was 0.000211.

Question: And the MiST Score (TOX [1])?
Answer: Its MiST Score is 0.759.

Question: And the Reproducibility (TOX [1])?
Answer: Its Reproducibility is 0.984.

Question: And the Specificity (TOX [1])?
Answer: Its Specificity is 0.665.

Question: For “Soat1 (from UniProt Q61263 1-540) (enzyme)”, which Abundance (TOX [1]) is on record?
Answer: The Abundance was 5.75e-06.

Question: What about the MiST Score (TOX [1]) of the same substance?
Answer: Its MiST Score is 0.762.

Question: What about the Reproducibility (TOX [1]) of the same substance?
Answer: Its Reproducibility is 0.249.

Question: What about the Specificity (TOX [1]) of the same substance?
Answer: Its Specificity is 1.

Question: Which results are given for Thoc6 (from UniProt Q5U4D9 1-341)?
Answer: Abundance (TOX [1]): 3.97e-05; MiST Score (TOX [1]): 0.76; Reproducibility (TOX [1]): 0.994; Specificity (TOX [1]): 0.661

Question: Which results are given for “Top3b (from UniProt Q9Z321 1-862) (enzyme)”?
Answer: Abundance (TOX [1]): 8.1e-07; MiST Score (TOX [1]): 0.752; Reproducibility (TOX [1]): 0.541; Specificity (TOX [1]): 0.854

Question: Which Abundance (TOX [1]) does the source give for “Yme1l1 (from UniProt O88967 1-715) (enzyme)” here?
Answer: Its Abundance is 1.45e-05.

Question: What about the MiST Score (TOX [1]) of the same substance?
Answer: Its MiST Score is 0.75.

Question: What about the Reproducibility (TOX [1]) of the same substance?
Answer: Its Reproducibility is 0.988.

Question: What about the Specificity (TOX [1]) of the same substance?
Answer: Its Specificity is 0.65.

Question: Which Abundance (TOX [2]) does the source give for anti-TOX antibody (Abcam, ab155768) here?
Answer: The Abundance was 0.00704.

Question: What about the MiST Score (TOX [2]) of the same substance?
Answer: Its MiST Score is 0.976.

Question: What about the Reproducibility (TOX [2]) of the same substance?
Answer: The Reproducibility was 0.964.

Question: What about the Specificity (TOX [2]) of the same substance?
Answer: The Specificity was 0.99.
